Nine molecules from patent US20220204643A1 (published 2022) can be followed below.

Assay [1] deals with T1, grancalcin, transcript variant 4 (human, UniProt P28676 1-217).
T1 construct: on protein array; also called GCA
T1 sequence: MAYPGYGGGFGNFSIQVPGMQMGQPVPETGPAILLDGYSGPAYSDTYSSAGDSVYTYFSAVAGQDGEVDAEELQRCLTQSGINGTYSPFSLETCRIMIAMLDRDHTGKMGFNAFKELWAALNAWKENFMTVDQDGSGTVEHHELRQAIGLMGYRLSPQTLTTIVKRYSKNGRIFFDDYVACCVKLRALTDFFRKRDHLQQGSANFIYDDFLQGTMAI
Nature of the assay: protein array.

Assay [2] deals with T2, Deoxyhypusine synthase (human, UniProt P49366 1-369).
T2 construct: on protein array; also called DHPS
T2 sequence: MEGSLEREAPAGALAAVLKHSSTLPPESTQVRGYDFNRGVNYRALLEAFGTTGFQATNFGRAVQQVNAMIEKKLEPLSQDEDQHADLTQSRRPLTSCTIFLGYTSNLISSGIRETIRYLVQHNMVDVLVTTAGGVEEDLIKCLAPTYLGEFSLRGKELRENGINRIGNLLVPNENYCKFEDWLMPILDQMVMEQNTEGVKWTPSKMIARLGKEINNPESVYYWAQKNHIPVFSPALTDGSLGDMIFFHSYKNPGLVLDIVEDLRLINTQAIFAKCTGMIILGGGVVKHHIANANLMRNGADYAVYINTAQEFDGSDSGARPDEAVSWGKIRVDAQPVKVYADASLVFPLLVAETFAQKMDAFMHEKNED
As to the kind of experiment: protein array.

Assay [3] addresses T3, Rna polymerase iii subunit g (human, UniProt O15318 1-223).
T3 construct: on protein array; also called POLR3G
T3 sequence: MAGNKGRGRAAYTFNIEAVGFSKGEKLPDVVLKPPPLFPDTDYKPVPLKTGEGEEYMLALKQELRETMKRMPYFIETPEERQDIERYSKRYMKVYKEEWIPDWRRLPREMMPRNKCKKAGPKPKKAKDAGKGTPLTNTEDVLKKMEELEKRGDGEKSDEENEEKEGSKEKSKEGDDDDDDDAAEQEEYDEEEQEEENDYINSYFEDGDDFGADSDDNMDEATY
Nature of the assay: protein array.

Assay [4] concerns the target T4, nudix hydrolase 22, transcript variant 2 (human, UniProt Q9BRQ3 1-303).
T4 construct: on protein array; also called NUDT22
T4 chain: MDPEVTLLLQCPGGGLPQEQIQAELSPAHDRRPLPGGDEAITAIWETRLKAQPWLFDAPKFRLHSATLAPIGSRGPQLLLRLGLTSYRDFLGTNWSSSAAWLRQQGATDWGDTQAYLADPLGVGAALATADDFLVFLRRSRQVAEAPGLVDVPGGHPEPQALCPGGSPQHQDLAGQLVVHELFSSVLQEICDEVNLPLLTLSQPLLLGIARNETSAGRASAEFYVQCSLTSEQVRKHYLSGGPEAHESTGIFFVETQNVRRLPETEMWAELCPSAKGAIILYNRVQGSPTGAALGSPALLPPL
As to the kind of experiment: protein array.

In assay [5] the target is T5, sorting nexin 1, transcript variant 1 (human, UniProt Q13596 1-522).
T5 construct: on protein array; also called SNX1
As to the kind of experiment: protein array.

In assay [6] the target is T6, CRK like proto-oncogene, adaptor protein, transcript variant 1 (human, UniProt P46109 1-303).
T6 construct: on protein array
Nature of the assay: protein array, with experimental replicate.

For assay [7], the target named is T7, DEAD-box helicase 53 (human, UniProt Q86TM3 1-631).
T7 construct: on protein array; also called DDX53
As to the kind of experiment: protein array.

In assay [8] the target is T8, Vezatin, adherens junctions transmembrane protein (human, UniProt Q9HBM0 56-779 at identity 0.99)).
T8 construct: on protein array; also called VEZT
T8 chain: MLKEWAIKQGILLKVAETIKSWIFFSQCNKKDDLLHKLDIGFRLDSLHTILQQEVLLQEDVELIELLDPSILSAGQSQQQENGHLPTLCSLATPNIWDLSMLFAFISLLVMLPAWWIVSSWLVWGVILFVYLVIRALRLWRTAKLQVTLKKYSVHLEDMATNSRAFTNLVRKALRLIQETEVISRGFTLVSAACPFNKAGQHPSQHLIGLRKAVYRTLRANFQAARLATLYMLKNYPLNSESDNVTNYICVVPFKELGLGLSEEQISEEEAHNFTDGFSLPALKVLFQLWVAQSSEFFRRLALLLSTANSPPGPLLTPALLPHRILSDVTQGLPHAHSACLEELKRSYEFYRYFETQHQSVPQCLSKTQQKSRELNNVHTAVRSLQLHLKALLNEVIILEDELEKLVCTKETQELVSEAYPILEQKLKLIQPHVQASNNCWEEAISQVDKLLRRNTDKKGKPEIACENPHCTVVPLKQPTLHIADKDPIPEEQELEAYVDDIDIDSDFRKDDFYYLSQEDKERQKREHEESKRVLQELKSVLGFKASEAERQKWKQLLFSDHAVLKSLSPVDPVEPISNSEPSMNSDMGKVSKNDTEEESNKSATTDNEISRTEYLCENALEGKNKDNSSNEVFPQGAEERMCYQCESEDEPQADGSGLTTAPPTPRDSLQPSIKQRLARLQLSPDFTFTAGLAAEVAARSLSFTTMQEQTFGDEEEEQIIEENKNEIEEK
Nature of the assay: protein array.

Assay [9] addresses T9, HEAT repeat containing 3, transcript variant 1 (human, UniProt Q7Z4Q2 1-680).
T9 construct: on protein array; also called HEATR3
T9 sequence: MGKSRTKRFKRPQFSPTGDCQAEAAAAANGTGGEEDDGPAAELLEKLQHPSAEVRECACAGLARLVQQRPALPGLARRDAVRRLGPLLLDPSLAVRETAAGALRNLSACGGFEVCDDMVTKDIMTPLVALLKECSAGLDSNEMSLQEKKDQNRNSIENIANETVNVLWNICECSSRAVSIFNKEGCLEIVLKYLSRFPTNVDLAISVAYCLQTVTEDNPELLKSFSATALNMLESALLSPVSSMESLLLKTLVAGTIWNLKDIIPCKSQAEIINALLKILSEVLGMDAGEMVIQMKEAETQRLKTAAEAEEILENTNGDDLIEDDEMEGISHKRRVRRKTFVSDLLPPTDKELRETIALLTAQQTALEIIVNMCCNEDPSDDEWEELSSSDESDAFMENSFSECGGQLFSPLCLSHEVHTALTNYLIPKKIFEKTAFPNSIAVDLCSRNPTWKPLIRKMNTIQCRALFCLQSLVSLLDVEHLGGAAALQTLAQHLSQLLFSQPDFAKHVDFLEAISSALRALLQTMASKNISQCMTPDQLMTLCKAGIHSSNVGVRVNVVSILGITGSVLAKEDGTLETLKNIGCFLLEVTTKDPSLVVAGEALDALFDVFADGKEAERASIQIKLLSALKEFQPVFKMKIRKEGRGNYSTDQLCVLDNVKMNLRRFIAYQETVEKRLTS
As to the kind of experiment: protein array, with experimental replicate.

For assay [10], the target named is T10, tubulin gamma 1 (human, UniProt P23258 1-451).
T10 construct: on protein array; also called TUBG1
As to the kind of experiment: protein array.

Assay [11] has as its target T11, F-box protein 2 (human, UniProt Q9UK22 1-296).
T11 construct: on protein array; also called FBXO2
T11 sequence: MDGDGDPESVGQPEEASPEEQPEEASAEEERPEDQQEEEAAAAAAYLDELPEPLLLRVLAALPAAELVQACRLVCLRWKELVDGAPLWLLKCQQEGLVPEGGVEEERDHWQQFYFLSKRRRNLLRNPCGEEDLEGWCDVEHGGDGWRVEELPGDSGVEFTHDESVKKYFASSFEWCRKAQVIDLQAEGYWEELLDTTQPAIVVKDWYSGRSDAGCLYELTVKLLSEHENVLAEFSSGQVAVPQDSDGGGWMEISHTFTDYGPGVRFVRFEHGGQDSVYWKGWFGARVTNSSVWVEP
As to the kind of experiment: protein array.

T7 sequence (Q86TM3 other isoform, or with tags, fused parts or gaps limits assumed): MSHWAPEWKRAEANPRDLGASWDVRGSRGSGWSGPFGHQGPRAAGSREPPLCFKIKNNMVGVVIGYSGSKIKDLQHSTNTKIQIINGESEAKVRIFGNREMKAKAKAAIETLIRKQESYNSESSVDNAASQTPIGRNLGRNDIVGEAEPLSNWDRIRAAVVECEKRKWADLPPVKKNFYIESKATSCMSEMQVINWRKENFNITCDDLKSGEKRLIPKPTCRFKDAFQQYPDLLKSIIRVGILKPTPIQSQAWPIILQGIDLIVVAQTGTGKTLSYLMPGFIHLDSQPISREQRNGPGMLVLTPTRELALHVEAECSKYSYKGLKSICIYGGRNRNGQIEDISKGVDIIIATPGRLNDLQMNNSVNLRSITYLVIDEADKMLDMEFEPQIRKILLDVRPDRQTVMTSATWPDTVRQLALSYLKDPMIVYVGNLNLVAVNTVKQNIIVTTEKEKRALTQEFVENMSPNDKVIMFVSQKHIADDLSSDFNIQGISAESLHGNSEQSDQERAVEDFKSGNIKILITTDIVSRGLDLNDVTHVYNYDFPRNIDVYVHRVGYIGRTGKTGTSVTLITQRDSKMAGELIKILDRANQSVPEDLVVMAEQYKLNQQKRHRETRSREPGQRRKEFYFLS
T6 sequence (P46109 whole entry, change not shown): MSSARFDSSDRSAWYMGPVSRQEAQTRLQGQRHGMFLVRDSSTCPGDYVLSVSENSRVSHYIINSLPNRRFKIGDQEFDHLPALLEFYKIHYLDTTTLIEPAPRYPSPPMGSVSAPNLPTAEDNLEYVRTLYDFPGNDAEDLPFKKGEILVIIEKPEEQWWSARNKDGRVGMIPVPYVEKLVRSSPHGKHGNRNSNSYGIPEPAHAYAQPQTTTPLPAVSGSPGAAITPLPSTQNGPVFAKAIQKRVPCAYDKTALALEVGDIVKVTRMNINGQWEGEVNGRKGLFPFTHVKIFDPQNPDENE
T10 sequence (P23258 whole entry): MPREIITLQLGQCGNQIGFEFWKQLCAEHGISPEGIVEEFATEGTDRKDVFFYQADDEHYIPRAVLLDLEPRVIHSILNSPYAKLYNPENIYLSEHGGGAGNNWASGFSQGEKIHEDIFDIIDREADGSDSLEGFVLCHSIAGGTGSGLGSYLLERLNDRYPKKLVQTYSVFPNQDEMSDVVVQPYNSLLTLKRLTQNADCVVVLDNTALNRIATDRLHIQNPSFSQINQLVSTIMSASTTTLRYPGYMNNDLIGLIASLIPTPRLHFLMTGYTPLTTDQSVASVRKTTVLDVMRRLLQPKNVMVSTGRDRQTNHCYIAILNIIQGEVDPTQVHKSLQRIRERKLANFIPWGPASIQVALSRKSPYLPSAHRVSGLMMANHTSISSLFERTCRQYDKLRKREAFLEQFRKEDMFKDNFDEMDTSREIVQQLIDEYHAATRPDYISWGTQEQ
T5 sequence (Q13596 whole entry, change not shown): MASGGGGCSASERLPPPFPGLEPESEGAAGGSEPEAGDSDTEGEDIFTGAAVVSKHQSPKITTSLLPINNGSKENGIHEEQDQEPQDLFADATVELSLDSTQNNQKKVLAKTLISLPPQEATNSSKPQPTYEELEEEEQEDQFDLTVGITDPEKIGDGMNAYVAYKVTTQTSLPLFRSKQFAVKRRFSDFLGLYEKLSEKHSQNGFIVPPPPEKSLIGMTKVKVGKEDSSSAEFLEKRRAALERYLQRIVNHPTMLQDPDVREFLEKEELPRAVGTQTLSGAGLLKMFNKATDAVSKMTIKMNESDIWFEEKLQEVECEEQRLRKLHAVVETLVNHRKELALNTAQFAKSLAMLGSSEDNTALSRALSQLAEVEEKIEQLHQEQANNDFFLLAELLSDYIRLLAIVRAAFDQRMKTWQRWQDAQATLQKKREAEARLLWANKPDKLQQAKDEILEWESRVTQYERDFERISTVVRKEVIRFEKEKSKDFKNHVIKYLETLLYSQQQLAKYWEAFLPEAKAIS

B1: TPAN1001 (antibody, V domains shown)
VH: QVQLVQSGAEVKKPGSSVKVSCKASRGTFSNHAVSWVRQAPGQGLEWVGGIIPVFGPPNYAQKFRGRVTITADRSTNTAYMELNSLRSEDTAVYYCARTQWGTDVEATNPYYYFMDVWGKGTTVTVSS
VL: EIVLTQSPGTLSLSPGHRATLSCRASQDVASTYLAWYQQKPGQAPRLLIYGASSRATGIPDRFSGSGSGTDFTLTISRLEPEDFAVFYCQYYGGSPGFTFGPGTKVDFKR
notes: VH/VL tied via antigen in summary, not by name in this stretch
Regarding B1, in assay [1], the binding result is listed as “binds”.

B2: TOVA1003 (antibody)
VH: GEQLLESGGGLVQPGGSLRLSCAASGFTFSHYAMTWVRQAPGKGLEWVSGVSGSGFTTYYADSVKGRFTISRDNAQNTLYLHMNSLRAEDTAIYYCVKDLEVSIGHNFDFWGQGTLVTVSSASTKGPSVFPLAPSSKSTSGGTAALGCLVKDYFPEPVTVSWNSGALTSGVHTFPAVLQSSGLYSLSSVVTVPSSSLGTQTYICNVNHKPSNTKVDKRV
VL: EVQMTQSPSSLSASVGDRVTITCRASQHIAGRLNWYQQKPGKAPKLLIHSASSVQREVPSRFGGSGFGTDFTLTIYSLQAEDFATYFCQQSYYTPPTFAGGTRVDLKRTVAAPSVFIFPPSDEQLKSGTASVVCLLNNFYPREAKVQWKVDNALQSGNSQESVTEQDSKDSTYSLSSTLTLSKADYEKHKVYACEVTHQGLSSPVTKSFNRGEC
notes: as for B1
With B2, the binding result in assay [2] was “binds”.

B3: TPAN1003 (antibody, V domains shown)
VH: QVQLVQSGAEVKKPGASVKISCQAFGYNFIDNAIHWVRQAPGQRPEWMGWINAGNGNTRYSQNFQGRVTITKVTSASTAYMEMSRLKSEDTAVYFCARSSKWTDWHFDYWGQGTLVTVSS
VL: EIVLTQSPGTLSLSPGETATLSCRASQSVANNYLAWHQQKPGQAPRLLIYGASKRAAGIPDRFSGSGSGTEFTLTISRLEPEDCAVYYCQEYVKSPGFAFGPGTRVDIKR
notes: as for B1
On to B3, for which the binding result in assay [3] is listed as “binds”.

B4: TOVA1007 (antibody, V domains shown)
VH: PVQLQESGPGLVNPSQTLSLTCTVSGGSISSGGYCWSWVRQHPGKGLEWIGCIYYIGTTYYMRSLKSRLIISIDTSKNQFSLKLTSVTAADSAVYYCARGGELLGGFGYSGMDVWGQGTTVTVSS
VL: not shown
notes: as for B1
For B4, the binding result in assay [4] is on record as “binds”.

B5: TPAN1004 (antibody, V domains shown)
VH: QIQLVQSGAEVKKPGASVKVSCKTSGYTFTHYGVAWVRQAPGQGPEWMGWISPYNGNIEYGQKFQGRVTMTTDTSTNTAYMELRSLRYDDTAVYYCARDLDEINSSWLDPWGQGTLIIVSP
VL: EIVLTQSPATLSLSPGERATLSCRASQSVSSNYLAWYQQKPGQAPRLLIHGASSRATGFPDRFSGSGSGTDFTLTINRLEPEDFAVYYCQQYGTSPQTFGQGTKVEIKR
notes: as for B1
B5: the binding result in assay [5] is “binds”.

B6: TPAN1006 (antibody, V domains shown)
VH: QVQLVQSGAEVKKPGASVKLSCKPSGYTFSSYYIHWLRQAPGQGLEWMGIINPSGGYTSSAQKFQGRVTMTRDTSTSTIYMELSSLRAEDTAVYYCARRGEVGTMVRVFRKPFDYWGQGTLVTVSS
VL: QSVLTQPPSVSGAPGQRVTISCTGSSSNIGAQYDVHWYKVIPGTAPKLLIYGNDNRPSGVPDRFSGSKSGTSASLAITGLQSEDEADYYCQSNDISLSGSVVFGGGTKLTVLG
notes: as for B1
For the molecule B6, the binding result in assay [6] is “binds”.

B7: TOVA1005 (antibody, V domains shown)
VH: QITLKESGPTLVKPTQTLTLTCTFSGFSLSTNGVGVGWIRQPPGKALEWLALINWDDDKRYSPSLKSRLTITKDTSKNQVVLTMTNLDPVDTATYYCVHARDDYGDSAWSTGPVWGQGTLVTVSS
VL: DFLLTQPHSVSESPGKTVTISCTRSSGSIASNYVQWYQQRPGSSPSTVIYEDHQRPSGVPGRFSGSIDSSSNSASLTISGLKTEDEADYFCQSSDSNNHVVFGGGTKLTVLG
notes: as for B1
Take B7: the binding result in assay [7] and in assay [8] was “binds” throughout.

B8: TOVA1004 (antibody, V domains shown)
VH: EVQLVESGGGLVKPGGSLRLSCAASGFTFSSYSMNWVRQAPGKGLEWVSSISSSSSYIYYADSVKGRFTISRDNAKNSLYLQMNSLRAEDTAVYYCARDRGVVVVAATPYYYGMDVWGQGTTVTVSS
VL: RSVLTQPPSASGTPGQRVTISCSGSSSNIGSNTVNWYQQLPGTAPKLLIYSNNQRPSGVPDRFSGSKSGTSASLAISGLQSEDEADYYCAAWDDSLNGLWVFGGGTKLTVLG
notes: as for B1
Regarding B8, the binding result in assay [9] is listed as “binds”.

B9: TPAN1007 (antibody, V domains shown)
VH: PVQLVQSGAEVKKPGESLKISCQGSGYNFSRYWIGWVRQMPGKGLEWMGVVFPGDSDIRYSLSFQGHITIYADNSISTAYLQWSSLKASDTAIYYCATTSTMPMPTRGRDWFDPWGQGTLVTVSS
VL: PSVLTQPPSVSGAPGQRVTISCTGSSSNIGAGYDVHWYQQLPGTAPKLLIYANTNRPSGVPDRFSGSKSGTSASLAITGLQAEDEADYYCQSYDNSLSGGVFGGGTKLTVLG
notes: as for B1
For the molecule B9, the binding result in assay [10] and in assay [11] was “binds” in each case.
